This passage reports EC50, Kd and IC50 results from US20220025060A1.

For assay [1], the target named is His-tagged human CD40 (h-CD40-his) recombinant protein (human) (UniProt P25942). As to the kind of experiment: ELISA, human CD40-his coated. A general note: An ELISA detects its analyte on a solid surface through an enzyme-linked reagent.
For assay [2] the target is unchanged. As to the kind of experiment: ELISA, human CD40-his coated. The source holds these as a separate data set.
For assay [3], the target named is His-tagged rhesus monkey CD40 (rhesus-CD40-his) recombinant protein (rhesus monkey) (UniProt F6SNI1). As to the kind of experiment: ELISA, Rhesus CD40-his coated.
The target of assay [4] is His-tagged human CD40 (h-CD40-his) recombinant protein (human) (UniProt P25942). As to the kind of experiment: Biacore SPR, antibody captured by anti-human antibody, CD40 antigen as analyte, 1:1 model. In general terms: SPR reads the build-up and loss of mass on a sensor chip optically.
For assay [5], the target named is human CD40 on HEK-Blue CD40L cells (HEK293 cells stably transfected with human CD40 gene) (human) (UniProt P25942). Briefly: HEK293-CD40 cell-binding (so in the source).
Assay [6] has the same target. As to the kind of experiment: HEK293-CD40 cell-binding (so in the source). The source holds these as a separate data set.
Assay [7] addresses Fc-tagged human CD40 (h-CD40-Fc) recombinant protein (human) (UniProt P25942). As to the kind of experiment: hCD40/hCD40L blocking ELISA, competitor CD40L-his.
Assay [8] has the same target. Briefly: hCD40/hCD40L blocking ELISA, competitor CD40L-his. The source holds these as a separate data set.

Read-outs that look alike come from different tables or passages of the source.

Sequence of Pfizer control (hIgG4) (antibody) (VH): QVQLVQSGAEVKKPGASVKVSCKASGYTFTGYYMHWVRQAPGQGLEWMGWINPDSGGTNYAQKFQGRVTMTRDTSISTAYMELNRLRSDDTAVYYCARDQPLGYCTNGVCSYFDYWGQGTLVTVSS
Sequence of Pfizer control (hIgG4) (antibody) (VL): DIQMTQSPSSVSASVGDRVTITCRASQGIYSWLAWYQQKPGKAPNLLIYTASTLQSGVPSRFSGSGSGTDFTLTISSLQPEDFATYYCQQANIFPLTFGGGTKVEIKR
Sequence of His-tagged human CD40 (h-CD40-his) recombinant protein (human) (P25942 21-193 limits assumed): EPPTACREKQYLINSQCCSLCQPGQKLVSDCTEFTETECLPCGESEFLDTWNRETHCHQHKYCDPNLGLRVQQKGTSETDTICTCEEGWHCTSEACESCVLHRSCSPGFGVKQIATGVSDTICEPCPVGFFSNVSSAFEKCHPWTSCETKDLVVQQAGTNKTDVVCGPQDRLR
Sequence of human CD40 on HEK-Blue CD40L cells (HEK293 cells stably transfected with human CD40 gene) (human) (P25942 21-277): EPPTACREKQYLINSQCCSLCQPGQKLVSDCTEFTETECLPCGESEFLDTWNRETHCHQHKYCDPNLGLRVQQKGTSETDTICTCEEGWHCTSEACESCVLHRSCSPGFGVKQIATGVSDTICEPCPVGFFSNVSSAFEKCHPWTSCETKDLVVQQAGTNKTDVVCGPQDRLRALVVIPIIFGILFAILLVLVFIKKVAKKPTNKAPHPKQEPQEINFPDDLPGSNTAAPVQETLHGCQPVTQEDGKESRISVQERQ
Sequence of Fc-tagged human CD40 (h-CD40-Fc) recombinant protein (human) (P25942 21-193 limits assumed): as the sequence (P25942 21-193 limits assumed) above

For orientation: EC50 means the midpoint of the concentration-response curve. The term Kd denotes the free concentration of one partner at which half of the binding sites on the other are occupied at equilibrium, for simple one-to-one binding. Pfizer control (hIgG4) (antibody): the EC50 in assay [1] worked out at 5.63 ng/mL; in assay [2], 3.98 ng/mL; in assay [3] it was 3.56 ng/mL. Also, in assay [4], the Kd worked out at 0.0204 µM.
What is called IC50 is the concentration that inhibits the measured activity by half. On to Alligator control (hIgG1) (antibody), for which the EC50 is 3.29 ng/mL in assay [1]; 1.29 ng/mL in assay [2]; 1.24 ng/mL in assay [3]; 396 ng/mL in assay [5]; 1360 ng/mL in assay [6]. In addition, the IC50 in assay [7] is 723 ng/mL; in assay [8], 647 ng/mL. Besides, the Kd in assay [4] worked out at 0.166 µM.
